From US20250011397A1 (HOSPITAL FOR SICK CHILDREN, published 2025)
Residue numbers refer to the chain shown, from its start. Where “and” joins values, the source holds several entries; their conditions need not be identical. Equal values may be shown once.

B1: mAb 120 (antibody, V domains shown)
VH: QVQLVQSGAEVKKPGASVKVSCKASGYTFTSYDINWVRQAPGQGLEWMGMIDPSGGSTSYAQKFQGRVTMTRDTSTSTVYMELSSLRSEDTAVYYCAKDFGGGTRYDYWYFDLWGRGTLVTVSS
VL: EIVMTQSPATLSVSPGERATLSCRASQSVSSRYLAWYQQKPGQAPRLLIYGASTRATGIPARFSGSGSGTEFTLTISSLQSEDFAVYYCQQYYTTPRTFGQGTRLEIKR
notes: also called IgG 120
B2: mAb 192 (antibody, V domains shown)
VH: QVQLVQSGAEVKKPGSSVKVSCKASGGTFSSYAISWVRQAPGQGLEWMGWINPNSGGANYAQKFQGRVTITADESTSTAYMELSSLRSEDTAVYYCSTYYYDSSGYSTDYWGQGTLVTVSS
VL: DIVMTQSPLSLPVTPGEPASISCRSSQSLLHSNGYNYLDWYLQKPGQSPQLLIYAASSLQSGVPDRFSGSGSGTDFTLKISRVEAEDVGVYYCMQALQTPYTFGQGTKLEIKR
B3: mAb 180 (antibody, V domains shown)
VH: QVQLVQSGAEVKKPGSSVKVSCKASGYTFTSYAMHWVRQAPGQGLEWMGRISPRSGGTKYAQRFQGRVTITADESTSTAYMELSSLRSEDTAVYYCAREAVAGTHPQAGDFDLWGRGTLVTVSS
VL: B2 VL with M94Q, A96Y, L97Y, Q98S, T99S
B4: mAb 64 (antibody, V domains shown)
VH: EVQLLESGGGLVQPGGSLRLSCAASGFPFSQHGMHWVRQAPGKGLEWVSAIDRSGSYIYYADSVKGRFTISRDNSKNTLYLQMNSLRAEDTAVYYCARDTYGGKVTYFDYWGQGTLVTVSS
VL: DIQMTQSPSSLSASVGDRVTITCRASQGISSHLAWYQQKPGKAPKLLIYDASNLETGVPSRFSGSGSGTDFTLTISSLQPEDFATYYCQQTYSTPWTFGQGTKVEIKR
notes: also called IgG 64
B5: mAb 82 (antibody, V domains shown)
VH: QVQLVQSGAEVKKPGASVKVSCKASGGSFSTSAFYWVRQAPGQGLEWMGWINPYTGGTNYAQKFQGRVTMTRDTSTSTVYMELSSLRSEDTAVYYCARSRALYGSGSYFDYWGQGTLVTVSS
VL: B4 VL with G28V, S31N, H32Y, T91S, Y92F, T94P, W96P, K103R, V104L
notes: also called IgG 82
B6: mAb 254 (antibody, V domains shown)
VH: EVQLLESGGGLVQPGGSLRLSCAASGFTFSSSAMHWVRQAPGKGLEWVSAIGTGGDTYYADSVKGRFTISRDNSKNTLYLQMNSLRAEDTAVYYCAREGDGYNFYFDYWGQGTLVTVSS
VL: DIQMTQSPSSLSASVGDRVTITCRASQGISSYLAWYQQKPGKAPKLLIYDASSLQIGVPSRFSGSGSGTDFTLTISSLQPEDFATYYCLQSYSTPPWTFGQGTKVEIKR
notes: also called IgG 254
B7: mAb 158 (antibody, V domains shown)
VH: QVQLVQSGAEVKKPGASVKVSCKASGYTFTGYYMHWVRQAPGQGLEWMGWINPLNGGTNFAPKFQGRVTMTRDTSTSTVYMELSSLRSEDTAVYYCARDPGGSYSNDAFDIWGQGTLVTVSS
VL: DIQMTQSPSSLSASVGDRVTITCRASQSISRYLNWYQQKPGKAPKLLIYDASNLESGVPSRFSGSGSGTDFTLTISSLQPEDFATYYCQQANSFPLTFGGGTKVDIKR
notes: also called IgG 158

molecular target: T1, SARS-CoV-2 Spike on HIV-based pseudotyped virus (Spike plasmid BEI NR52310) (SARS-CoV-2, UniProt P0DTC2 14-1273); assay: cell-based or functional assay

| Binder | IC50 SARS-CoV2 PsV (µg/mL), IgG [µg/mL] |
| --- | --- |
| B1 | > 50 |
| B2 | > 50 |
| B3 | > 50 |
| B4 | > 50 |
| B5 | 1.6 |
| B6 | > 50 |
| B7 | > 50 |

molecular target: T1, SARS-CoV-2 Spike on HIV-based …; assay: cell-based or functional assay; remark: another data set of the same source

| Binder | Median IC50 (PsV neutralization) |
| --- | --- |
| B1 | > 50 µg/mL and > 333 nM |
| B2 | > 50 µg/mL and > 333 nM |
| B3 | > 50 µg/mL and > 333 nM |
| B4 | > 50 µg/mL and > 333 nM |
| B5 | 1.6 µg/mL and 11 nM |
| B6 | > 50 µg/mL and > 333 nM |
| B7 | > 50 µg/mL and > 333 nM |
